Consider 24 sequences from the DeepSol protein solubility set.

This data set is described as follows: soluble on expression in E. coli; label from the status in PepcDB or PDB records.
Take “MRILKIYENKGVYKVVIGEPFPPIEFPLEQKISSNKSLSELGLTIVQQGNKVIVEKSLDLKEHIIGLGEKAFELDRKRKRYVMYNVDAGAYKKYQDPLYVSIPLFISVKDGVATGYFFNSASKVIFDVGLEEYDKVIVTIPEDSVEFYVIEGPRIEDVLEKYTELTGKPFLPPMWAFGYMISRYSYYPQDKVVELVDIMQKEGFRVAGVFLDIHYMDSYKLFTWHPYRFPEPKKLIDELHKRNVKLITIVDHGIRVDQNYSPFLSGMGKFCEIESGELFVGKMWPGTTVYPDFFREDTREWWAGLISEWLSQGVDGIWLDMNEPTDFSRAIEIRDVLSSLPVQFRDDRLVTTFPDNVVHYLRGKRVKHEKVRNAYPLYEAMATFKGFRTSHRNEIFILSRAGYAGIQRYAFIWTGDNTPSWDDLKLQLQLVLGLSISGVPFVGCDIGGFQGRNFAEIDNSMDLLVKYYALALFFPFYRSHKATDGIDTEPVFLPDYYKEKVKEIVELRYKFLPYIYSLALEASEKGHPVIRPLFYEFQDDDDMYRIEDEYMVGKYLLYAPIVSKEESRLVTLPRGKWYNYWNGEIINGKSVVKSTHELPIYLREGSIIPLEGDELIVYGETSFKRYDNAEITSSSNEIKFSREIYVSKLTITSEKPVSKIIVDDSKEIQVEKTMQNTYVAKINQKIRGKINLE”: the “soluble on expression in E. coli” value was “soluble”. As to “MRILSLILWIAAIVLPVHSASAAPVKMTIVLERQYLDGEMSEEKVTETVDSMTEIWKKYRGWQLVTLDDQTIVFRKTINDISPLLKTNGYFGITDDGTLSIFNGKPDRSSEIIQSFFQIDVQKLESRQQEKLKKGIRVLSKERYEQVIEMYRHFAVVQ”, the “soluble on expression in E. coli” value is “not soluble”.

Regarding “MRITHLGHSCILVEAAGQRILVDPGNLSRSWRGLTDLDAILVTHRHPDHVDPEHIGALVDANSGAVVRAEEGACHEIPALDADPVAPGDVLQIGEVRIEAVGGRHAVIHRDLEPIGNVGYLIGEGLGTILYHPGDELDETPRGVDVLACPAHAPWAAMKETVDFARSVGARHGFLIHEGLLNGRGWQLSFDRHQEMVPTTFHDLRNGQPWEVPQDLEHHHHHH”, the “soluble on expression in E. coli” value was “not soluble”. In the case of “MRITLVTDSTSDLPQDLRGRLGVRVVPLYVNLSGAIYRDWEEITPTEIFQKVREGAAFPTTSQPSPEDFARVYREALEEADHVLSLHISGKLSGTVQSAELAAQEFPGRVTVVDTQAASLGVGMMVLRAKELLEEGQSLEAVLAELERLRRDHFVRFSVATLEFLKRGGRIGGAQAFLGTLLNLKPVLTLKEGRVEAAGRARGEKKAREEILKAFRAWAEGRKRIRAYFLYSGDEDAVAALRQEVLASGLPVEEALVNELGAVIASHTGPGTYGFYAYSL” it was “soluble”.

On to “MRIYLIGFMCSGKSTVGSLLSRSLNIPFYDVDEEVQKREGLSIPQIFEKKGEAYFRKLEFEVLKDLSEKENVVISTGGGLGANEEALNFMKSRGTTVFIDIPFEVFLERCKDSKERPLLKRPLDEIKNLFEERRKIYSKADIKVKGEKPPEEVVKEILLSLEGNALGG”, for which the “soluble on expression in E. coli” value is recorded as “soluble”. “MRKLMTATAALCACAVTVSAGAAWADADVQPAGSVPIPDGPAQTWIVADLDSGQVLAGRDQNVAHPPASTIKVLLALVALDELDLNSTVVADVADTQAECNCVGVKPGRSYTARQLLDGLLLVSGNDAANTLAHMLGGQDVTVAKMNAKAATLGATSTHATTPSGLDGPGGSGASTAHDLVVIFRAAMANPVFAQITAEPSAMFPSDNGEQLIVNQDELLQRYPGAIGGKTGYTNAARKTFVGAAARGGRRLVIAMMYGLVKEGGPTYWDQAATLFDWGFALNPQASVGSL”: the “soluble on expression in E. coli” value was “soluble”. In the case of “MRKPTDTLPVNLQRRRLLCAAGALLLSPLAHAGAQREETLADDVASVMRSSVGSVNPPRLVFDNPKEGERWLSAMSARLARFVPEEEERRRLLVNIQYESSRAGLDTQIVLGLIEVESAFRQYAISGVGARGLMQVMPFWKNYIGKPAHNLFDIRTNLRYGCTILRHYRNLEKGNIVRALARFNGSLGSNKYPNAVLGAWRNRWQWR”, the “soluble on expression in E. coli” value was “not soluble”. For “MRKSLVALLLLAASGLAQAQVDLREGHPDRYTVVRGDTLWDISGKFLRQPWKWPELWHANPQIQNPHLIYPGDTLSLVYVDGQPRLVLNRGESRGTIKLSPKIRSTPIAEAIPTIPLDKINSFLLANRIVDDEKTFTSAPYIVAGNAERIVSGTGDRIYARGKFADGQPAYGIFRQGKVYIDPKTKEVLGINADDIGGGEVVATEGDVATLALTRTTQEVRLGDRLFPTEERAVNSTFMPGEPSREVKGEIIDVPRGVTQIGQFDVVTLNRGQRDGLAEGNVLAIYKVGETVRDRVTGESVKIPDERAGLLMVFRTYKKLSYALVLMASRPLSVTDRVQNP”, the “soluble on expression in E. coli” value is recorded as “not soluble”.

On to “MRKSMISFLEKKAKNEKITMVSAYDYHSARILDNSDIDIILVGDSLAMTVLGMQDTLSVTMDEMLIFTKAVSRGAKKSFVLADMPFMSYQSSDRDAILNASRFIKESHANGVKVEGGIEIASKIKLISQSGIPVVAHLGLTPQAVNMLGGYRVQGKDLQSAQKIIDDAKAVQDAGACMLVLECVPVKLAQKISSILEIPTIGIGSGKYCDGQVLVYHDLLGLNKDFKAKFVKHFDKIDPQVGVEKYRDEVKSGIFPSQEHSFDYLDDELLDKLY”, for which the “soluble on expression in E. coli” value is recorded as “not soluble”. For “MRKTLTALFIAAALPTFAMAAPAANDLPPPPMEGGHMMGQHGPRHGGPMKELDLTREQRQQMGKLMGEQMKARHEITQRYLAKLPAAEQKALKDELKASHEKTQKDIRALLTPEQQKKFDELQKKREQRKAEWAEFQQWKADKKSNLEHHHHHH”, the “soluble on expression in E. coli” value was “soluble”.

On to “MRLIIVSGRSGSGKSTALNVLEDNGFYCIDNLPASLLPDLAQRALLHTELLQPQVAVSIDARNLPSQLQRFPELLQEVRDNHINCDVLYLDADDETLLKRFSETRRRHPLTTDTRSLAEAIGDESQLLGPIADLADLKLDTTSLNLYQLRDTIKLRLLNKPEPGTAFLVESFGFKRGMPVDADLVFDVRCLPNPYWKPELRDHSGLEPEVREYLAAQPDVEEMYQDIVGYLNKWLPRFAASNRSYVTVAIGCTGGHHRSVYLAERIGAALRDSLKNVQIRHRDLSS”, for which the “soluble on expression in E. coli” value is “not soluble”. For the sequence “MRLPDAGFRRYIVVAGRRNVGKSSFMNALVGQNVSIVSEYAGTTTDPVYKSMELYPVGPVTLVDTPGLDDVGELGRLRVEKARRVFYRADCGILVTDSEPTPYEDDVVNLFKEMEIPFVVVVNKIDVLGEKAEELKGLYESRYEAKVLLVSALQKKGFDDIGKTISEILPGDEEIPYLGDLIDGGDLVILVVPIDLGAPKGRLIMPQVHAIREALDREAIALVVKERELRYVMENIGMKPKLVITDSQVVMKVASDVPEDVELTTFSIVESRYRGDLAYFVESVRKIEELEDGDTVVIMEGCTHRPLTEDIGRVKIPRWLVNHTGAQLNFKVIAGKDFPDLEEIEGAKLIIHCGGCVLNRAAMMRRVRMAKRLGIPMTNYGVTISYLHGVLDRAIRPFREEVKVLEHHHHHH”, the “soluble on expression in E. coli” value was “soluble”.

On to “MRLPTEAHLRQHVRVIDSMSCNREKVRDLRRQIPSFDCVPGCHDCCGPVTTSSEEMSRLPRKTVAEQEAAFNELNCVHLGPQGCTVYDERPLICRLFGTTASLPCPNGRRPVELIHPRAEKQIHEYMASTRQVLVLEHHHHHH”, for which the “soluble on expression in E. coli” value is on record as “not soluble”. Take “MRLSMENIMNNPVIGVVMCRNRLKGHATQTLQEKYLNAIIHAGGLPIALPHALAEPSLLEQLLPKLDGIYLPSSPSNVQPHLYGENGDEPDADPGRDLLSMAIINAALERRIPIFAICRGLQELVVATGGSLHRKLCEQPELLEHREDPELPVEQQYAPSHEVQVEEGGLLSALLPECSNFWVNSLHGQGAKVVSPRLRVEARSPDGLVEAVSVINHPFALGVQWHPEWNSSEYALSRILFEGFITAWQHHIAEKQRL”: the “soluble on expression in E. coli” value is given as “not soluble”. Turning to “MRLTKQTNYAVRMLMYCAANEGKLSRIPEIARAYGVSELFLFKILQPLNKAGLVETVRGRNGGVRLGKPAEKISLFDVVRVTEDSFAMAECFEDGAVECPLVDSCGLNSALRKALNAFFDVLAEYSIDDLVKARPQINFLLGIDTEMPKIAALPAA”, the “soluble on expression in E. coli” value is “not soluble”. “MRLTSKGRYAVTAMLDVALNSEAGPVPLADISERQGISLSYLEQLFSRLRKNGLVSSVRGPGGGYLLGKDASSIAVGEVISAVDESVDATRCQGKGGCQGGDKCLTHALWRDLSDRLTGFLNNITLGELVNNQEVLDVSGRQHTHDAPRTRTQDAIDVKLRA”: the “soluble on expression in E. coli” value is on record as “soluble”.

Consider “MRMMEAEIKDQRNNLQALKNSQRLSVRGSIQSNMSSRTDGILQRRLDETERKLAKTSAELKAKDEKLKKETASLEASREAHRLLQEESNKSKVSVMRLTFKLNRITHESVKEQAVLKKKLLDCETRLATYSECLVCYQKFDENTRIPRVMDCGHTLCDFCINQIVKMAGCYSATCPFDRVRIFGFGKSRRLEDRPCNRFIMK”, for which the “soluble on expression in E. coli” value is given as “not soluble”.

Turning to “MRNEMHLQFSARSENESFARVTVAAFVAQLDPTMDELTEIKTVVSEAVTNAIIHGYNNDPNGIVSISVIIEDGVVHLTVRDEGVGIPDIEEARQPLFTTKPELERSGMGFTIMENFMDEVIVESEVNKGTTVYLKKHIVKSKRYLEGSSF”, the “soluble on expression in E. coli” value is recorded as “soluble”. “MRNFDLSPLYRSAIGFDRLFNHLENNQSQSNGGYPPYNVELVDENHYRIAIAVAGFAESELEITAQDNLLVVKGAHADEQKERTYLYQGIAERNFERKFQLAENIHVRGANLVNGLLYIDLERVIPEAKKPRRIEINLEHHHHHH”: the “soluble on expression in E. coli” value is listed as “soluble”. In the case of “MRNIEEDLHKNEEEDPAPEVDDTDIPVDPLLTLLYIRHTLTSPWSSSEERDTAKAAMMEEMEKHNMAPYIRLVCEALGVPLDESKLAEMDAINAKKVAAFDARLKDAVDNLGDTEVRDVLQAKCDHYARIGDLEMCMKTNEECAAKTLATGPKLDLYFQRIRLGIAFSDNDIAAKGITDAHRLMKDGDWERRNRLRVYEGIYHVFIRDFQRGSTLLLDSITTFAAGELLTFQDFVFITVVASLPVLSRPELRKRIVYSPEVNRTGVDDVRELVNSIYDCQYNKVFPNLEVVCQHLRKVVYLSPHVSYFFREMRVLIFTQFLDSYSSVTLESMGAAFGIPVPALDSMLCTLISNERIACKVDRVDGSVETYRGDTTNFDYHRIVKSGDLLLNRIQKLSRLVDM” it was “soluble”.

As to “MRNLVKYAGIGLLVMGLAACDNNDTKASAESAAAESQASGQPISLMDGKLSFSLPADMTDQSGKLGTQANNMHVYSDPTGQKAVIVIVGDNTDEALPVLANRLLEQQRSRDPQLQVVTNKSIELKGHTLQQLDSIISAKGQTAYSSIVLGKVDNQLLTIQVTLPADNQQKAQTTAENIINTLVIK”, the “soluble on expression in E. coli” value is listed as “not soluble”. As to “MRNPIMVTTEVAGEPPGQGRKWAAHGTMAAPRVHTDYHPGGGSACSSVKVRSHVGHTGVFFFVDQDPLAVSLTSQSLIPPLIKPGLLKAWGFLLLCAQPSANGHSLCCLLYTDLVSSHELSPFRALCLGPSDAPSACASCNCLASTYYLLEHHHHHH”, the “soluble on expression in E. coli” value is “not soluble”. With “MRNTKGNELEDREILASSLHANGISETVLLQIWNATEENLDKLVSALNVYKKGKISITWHEIMTVKENNEAIIPFSVAVQNIYGAFKNIDEELAELARNAIESGWVDAEPRENKPPGGFCAPFFSEKESRISMRYDGSIDSVRILAHELGHAWHFYNMSFEQSSSFLDDYLPMSTAESASIFFETLLINYLIQTTDSIDIKKSLLSWKIRNCFNYVMAIRASFEFEKNFYEKCKESPISADEIEKISIVAQEKAYGNALSEYQPFVWMKYVQFYIADVPFYNYPYTFGYLVSFSLLEIAKENKSTFHSKFKEFLRENGKAPVEELIKKHFEIDITSYAFWDKAFKQISKDIDAYLRLI”, the “soluble on expression in E. coli” value is reported as “not soluble”. For “MRPTVVSMGKHFGNLGKMYGEHRFALAPNEQKAYKGFFDQAFVKTFKTYVWDQWYYYIPQTIGAYLLYDWAKKTNVAANRKNPADFANDQ”, the “soluble on expression in E. coli” value was “not soluble”.
